Test results: patent publication US20240288453A1 (NATIONAL UNIVERSITY CORPORATION TOKAI NATIONAL HIGHER …, published 2024)

Molecular target: T1, mouse TfR (mouse, UniProt Q62351 89-763, limits assumed)
T1 construct: The assay and the form of the protein are not described
Test: not described

T1 sequence (Q62351 89-763 limits assumed): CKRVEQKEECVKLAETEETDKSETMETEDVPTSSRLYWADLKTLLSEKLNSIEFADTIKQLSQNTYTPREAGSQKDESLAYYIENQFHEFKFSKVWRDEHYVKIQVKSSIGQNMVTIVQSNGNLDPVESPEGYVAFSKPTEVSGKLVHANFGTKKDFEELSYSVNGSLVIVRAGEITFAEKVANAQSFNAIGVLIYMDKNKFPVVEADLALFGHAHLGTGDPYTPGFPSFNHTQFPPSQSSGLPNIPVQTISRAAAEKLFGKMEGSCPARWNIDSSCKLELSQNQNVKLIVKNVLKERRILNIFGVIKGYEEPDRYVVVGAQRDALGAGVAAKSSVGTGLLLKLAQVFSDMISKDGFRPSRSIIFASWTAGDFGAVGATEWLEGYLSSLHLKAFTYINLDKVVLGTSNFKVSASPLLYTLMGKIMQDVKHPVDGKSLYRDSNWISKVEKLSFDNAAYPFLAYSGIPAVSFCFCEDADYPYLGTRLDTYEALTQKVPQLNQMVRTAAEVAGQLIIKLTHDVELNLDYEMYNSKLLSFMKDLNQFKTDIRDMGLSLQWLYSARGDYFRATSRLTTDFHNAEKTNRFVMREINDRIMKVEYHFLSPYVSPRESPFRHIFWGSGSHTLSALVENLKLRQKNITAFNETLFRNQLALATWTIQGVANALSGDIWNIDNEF

B1: TfR436 antibody (antibody, V domains shown)
VH: DVQLVQSGGGVVQPGRSLRLSCAASGFPFKSYGMHWVRQAPGKGLEWVAVISYDGSNKYYADSVKGRFTISRDNSKNTLYLQMNSLRGEDTAVYYCARDSNFWSGYYSPVDVWGQGTTVTVSS
VL: NFMLTQPHSVSESPGKTVTISCTRSSGSIASNSVQWYQQRPGSAPITVIYEDTQRPSGVPDRFSGSIDSSSNSASLTISGLQTEDEADYYCQSYDSAYHWVFGGGTKLAVL
notes: The antibody is the one of paragraphs 0090 and 0091 of WO2014/073641 and was detected with an anti-human IgG Fc gamma secondary antibody; also called parent antibody
binding result: no binding
